# Test results reported in the supplement of paper PMC10567573.
# B1: ZNF449 (parent)
# chain: EPHKCPECGKRFLRSSDLYRHQRL
# Variants of: B1
# Assay: protein stability index of a GFP-peptide fusion (GPS, HEK-293T) (PSI 1-6); higher = more stable
# Conditions: c terminus: a fixed tail appended
# 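Note: lentivirally expressed fusions sorted by FACS into six bins by GFP to DsRed ratio, PSI derived from sequencing read proportions per bin multiplied by bin number.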
row,Variant,protein stability index
1,SPHKCPECGKRFLRSSDLYRHQRL,2.73
2,NPHKCPECGKRFLRSSDLYRHQRL,2.83
3,DPHKCPECGKRFLRSSDLYRHQRL,4.06
4,YPHKCPECGKRFLRSSDLYRHQRL,3.3
5,PPHKCPECGKRFLRSSDLYRHQRL,3.19
6,GPHKCPECGKRFLRSSDLYRHQRL,3.13
7,HPHKCPECGKRFLRSSDLYRHQRL,3.45
8,LPHKCPECGKRFLRSSDLYRHQRL,2.81
9,RPHKCPECGKRFLRSSDLYRHQRL,3.37
10,FPHKCPECGKRFLRSSDLYRHQRL,2.93
11,KPHKCPECGKRFLRSSDLYRHQRL,2.79
12,APHKCPECGKRFLRSSDLYRHQRL,2.84
13,TPHKCPECGKRFLRSSDLYRHQRL,2.6
14,IPHKCPECGKRFLRSSDLYRHQRL,2.6
15,QPHKCPECGKRFLRSSDLYRHQRL,3.12
16,CPHKCPECGKRFLRSSDLYRHQRL,2.14
17,WPHKCPECGKRFLRSSDLYRHQRL,3.2
18,MPHKCPECGKRFLRSSDLYRHQRL,2.89
19,VPHKCPECGKRFLRSSDLYRHQRL,2.67
20,EPCKCPECGKRFLRSSDLYRHQRL,3.58
21,EPGKCPECGKRFLRSSDLYRHQRL,3.02
22,EPEKCPECGKRFLRSSDLYRHQRL,2.99
23,EPMKCPECGKRFLRSSDLYRHQRL,3.79
24,EPFKCPECGKRFLRSSDLYRHQRL,4.09

row,Variant,protein stability index
1,EPSKCPECGKRFLRSSDLYRHQRL,2.97
2,EPDKCPECGKRFLRSSDLYRHQRL,3.23
3,EPAKCPECGKRFLRSSDLYRHQRL,3.25
4,EPWKCPECGKRFLRSSDLYRHQRL,4
5,EPVKCPECGKRFLRSSDLYRHQRL,3.72
6,EPRKCPECGKRFLRSSDLYRHQRL,3.29
7,EPLKCPECGKRFLRSSDLYRHQRL,4.89
8,EPTKCPECGKRFLRSSDLYRHQRL,3.9
9,EPIKCPECGKRFLRSSDLYRHQRL,4.1
10,EPYKCPECGKRFLRSSDLYRHQRL,4.7
11,EPQKCPECGKRFLRSSDLYRHQRL,3.31
12,EPNKCPECGKRFLRSSDLYRHQRL,4.49
13,EPKKCPECGKRFLRSSDLYRHQRL,3.23
14,EPPKCPECGKRFLRSSDLYRHQRL,3.33
15,EPHKCPECGIRFLRSSDLYRHQRL,3.32
16,EPHKCPECGNRFLRSSDLYRHQRL,2.52
17,EPHKCPECGERFLRSSDLYRHQRL,3.63
18,EPHKCPECGPRFLRSSDLYRHQRL,2.33
19,EPHKCPECGVRFLRSSDLYRHQRL,3.31
20,EPHKCPECGQRFLRSSDLYRHQRL,4.08
21,EPHKCPECGFRFLRSSDLYRHQRL,2.52
22,EPHKCPECGARFLRSSDLYRHQRL,3.97
23,EPHKCPECGDRFLRSSDLYRHQRL,2.44
24,EPHKCPECGHRFLRSSDLYRHQRL,3.15

row,Variant,protein stability index
1,EPHKCPECGCRFLRSSDLYRHQRL,2.48
2,EPHKCPECGMRFLRSSDLYRHQRL,3.99
3,EPHKCPECGSRFLRSSDLYRHQRL,3.21
4,EPHKCPECGTRFLRSSDLYRHQRL,3.5
5,EPHKCPECGRRFLRSSDLYRHQRL,3.55
6,EPHKCPECGGRFLRSSDLYRHQRL,2.11
7,EPHKCPECGLRFLRSSDLYRHQRL,3.65
8,EPHKCPEMGKRFLRSSDLYRHQRL,3.05
9,EPHKCPEPGKRFLRSSDLYRHQRL,3.51
10,EPHKCPEFGKRFLRSSDLYRHQRL,2.72
11,EPHKCPEAGKRFLRSSDLYRHQRL,3.24
12,EPHKCPEGGKRFLRSSDLYRHQRL,3.3
13,EPHKCPEIGKRFLRSSDLYRHQRL,3.06
14,EPHKCPESGKRFLRSSDLYRHQRL,3.37
15,EPHKCPELGKRFLRSSDLYRHQRL,3.01
16,EPHKCPETGKRFLRSSDLYRHQRL,3.36
17,EPHKCPEWGKRFLRSSDLYRHQRL,2.64
18,EPHKCPEYGKRFLRSSDLYRHQRL,3.24
19,EPHKCPENGKRFLRSSDLYRHQRL,3.16
20,EPHKCPEVGKRFLRSSDLYRHQRL,3.25
21,EPHKCPEQGKRFLRSSDLYRHQRL,3.43
22,EPHKCPEEGKRFLRSSDLYRHQRL,4.02
23,EPHKCPERGKRFLRSSDLYRHQRL,3.08
24,EPHKCPEHGKRFLRSSDLYRHQRL,3.26

row,Variant,protein stability index
1,EPHKCPEDGKRFLRSSDLYRHQRL,4.03
2,EPHKCPEKGKRFLRSSDLYRHQRL,3.75
3,EPHKCPECSKRFLRSSDLYRHQRL,3.36
4,EPHKCPECNKRFLRSSDLYRHQRL,3.14
5,EPHKCPECKKRFLRSSDLYRHQRL,2.61
6,EPHKCPECIKRFLRSSDLYRHQRL,2.65
7,EPHKCPECPKRFLRSSDLYRHQRL,2.82
8,EPHKCPECLKRFLRSSDLYRHQRL,2.3
9,EPHKCPECAKRFLRSSDLYRHQRL,2.24
10,EPHKCPECMKRFLRSSDLYRHQRL,2.72
11,EPHKCPECYKRFLRSSDLYRHQRL,2.8
12,EPHKCPECRKRFLRSSDLYRHQRL,2.31
13,EPHKCPECTKRFLRSSDLYRHQRL,2.32
14,EPHKCPECVKRFLRSSDLYRHQRL,2.54
15,EPHKCPECHKRFLRSSDLYRHQRL,3.08
16,EPHKCPECEKRFLRSSDLYRHQRL,3.15
17,EPHKCPECFKRFLRSSDLYRHQRL,2.52
18,EPHKCPECDKRFLRSSDLYRHQRL,2.99
19,EPHKCPECWKRFLRSSDLYRHQRL,2.12
20,EPHKCPECQKRFLRSSDLYRHQRL,3.16
21,EPHKCPECCKRFLRSSDLYRHQRL,2.18
22,EPHECPECGKRFLRSSDLYRHQRL,4.73
23,EPHSCPECGKRFLRSSDLYRHQRL,4.13
24,EPHRCPECGKRFLRSSDLYRHQRL,3.71

row,Variant,protein stability index
1,EPHLCPECGKRFLRSSDLYRHQRL,4.49
2,EPHPCPECGKRFLRSSDLYRHQRL,3.42
3,EPHMCPECGKRFLRSSDLYRHQRL,4.7
4,EPHTCPECGKRFLRSSDLYRHQRL,4.46
5,EPHGCPECGKRFLRSSDLYRHQRL,3.68
6,EPHFCPECGKRFLRSSDLYRHQRL,3.98
7,EPHYCPECGKRFLRSSDLYRHQRL,4.47
8,EPHACPECGKRFLRSSDLYRHQRL,4.5
9,EPHCCPECGKRFLRSSDLYRHQRL,3.86
10,EPHNCPECGKRFLRSSDLYRHQRL,4.09
11,EPHICPECGKRFLRSSDLYRHQRL,4.71
12,EPHVCPECGKRFLRSSDLYRHQRL,4.7
13,EPHQCPECGKRFLRSSDLYRHQRL,4.57
14,EPHWCPECGKRFLRSSDLYRHQRL,3.65
15,EPHDCPECGKRFLRSSDLYRHQRL,4.36
16,EPHHCPECGKRFLRSSDLYRHQRL,4.09
17,EPHKCPHCGKRFLRSSDLYRHQRL,3.65
18,EPHKCPSCGKRFLRSSDLYRHQRL,4.11
19,EPHKCPNCGKRFLRSSDLYRHQRL,3.81
20,EPHKCPPCGKRFLRSSDLYRHQRL,2.21
21,EPHKCPACGKRFLRSSDLYRHQRL,3.29
22,EPHKCPWCGKRFLRSSDLYRHQRL,4.05
23,EPHKCPDCGKRFLRSSDLYRHQRL,4.12
24,EPHKCPYCGKRFLRSSDLYRHQRL,3.66

row,Variant,protein stability index
1,EPHKCPICGKRFLRSSDLYRHQRL,3.3
2,EPHKCPGCGKRFLRSSDLYRHQRL,3.74
3,EPHKCPKCGKRFLRSSDLYRHQRL,4.14
4,EPHKCPLCGKRFLRSSDLYRHQRL,3.51
5,EPHKCPVCGKRFLRSSDLYRHQRL,3.44
6,EPHKCPMCGKRFLRSSDLYRHQRL,3.65
7,EPHKCPCCGKRFLRSSDLYRHQRL,4.37
8,EPHKCPQCGKRFLRSSDLYRHQRL,3.62
9,EPHKCPFCGKRFLRSSDLYRHQRL,3.25
10,EPHKCPRCGKRFLRSSDLYRHQRL,3.17
11,EPHKCPTCGKRFLRSSDLYRHQRL,3.82
12,EPHKDPECGKRFLRSSDLYRHQRL,3.69
13,EPHKQPECGKRFLRSSDLYRHQRL,3.6
14,EPHKSPECGKRFLRSSDLYRHQRL,3.44
15,EPHKLPECGKRFLRSSDLYRHQRL,3.3
16,EPHKGPECGKRFLRSSDLYRHQRL,2.63
17,EPHKAPECGKRFLRSSDLYRHQRL,3.69
18,EPHKTPECGKRFLRSSDLYRHQRL,2.79
19,EPHKFPECGKRFLRSSDLYRHQRL,2.5
20,EPHKVPECGKRFLRSSDLYRHQRL,2.87
21,EPHKRPECGKRFLRSSDLYRHQRL,3.14
22,EPHKIPECGKRFLRSSDLYRHQRL,3.26
23,EPHKNPECGKRFLRSSDLYRHQRL,3.41
24,EPHKWPECGKRFLRSSDLYRHQRL,3.01

row,Variant,protein stability index
1,EPHKYPECGKRFLRSSDLYRHQRL,3.14
2,EPHKMPECGKRFLRSSDLYRHQRL,3.06
3,EPHKEPECGKRFLRSSDLYRHQRL,3.56
4,EPHKKPECGKRFLRSSDLYRHQRL,4
5,EPHKPPECGKRFLRSSDLYRHQRL,3.07
6,EPHKHPECGKRFLRSSDLYRHQRL,3.19
7,EEHKCPECGKRFLRSSDLYRHQRL,3.42
8,EYHKCPECGKRFLRSSDLYRHQRL,3.21
9,EDHKCPECGKRFLRSSDLYRHQRL,4
10,ENHKCPECGKRFLRSSDLYRHQRL,3.37
11,ETHKCPECGKRFLRSSDLYRHQRL,3.52
12,EAHKCPECGKRFLRSSDLYRHQRL,3.5
13,ERHKCPECGKRFLRSSDLYRHQRL,3.54
14,ESHKCPECGKRFLRSSDLYRHQRL,4.41
15,EFHKCPECGKRFLRSSDLYRHQRL,3.17
16,EMHKCPECGKRFLRSSDLYRHQRL,3.38
17,EIHKCPECGKRFLRSSDLYRHQRL,3.18
18,EQHKCPECGKRFLRSSDLYRHQRL,3.53
19,EKHKCPECGKRFLRSSDLYRHQRL,3.57
20,EHHKCPECGKRFLRSSDLYRHQRL,3.95
21,EGHKCPECGKRFLRSSDLYRHQRL,3.81
22,EVHKCPECGKRFLRSSDLYRHQRL,3.02
23,EWHKCPECGKRFLRSSDLYRHQRL,3.22
24,ECHKCPECGKRFLRSSDLYRHQRL,3.58

row,Variant,protein stability index
1,ELHKCPECGKRFLRSSDLYRHQRL,3.63
2,EPHKCLECGKRFLRSSDLYRHQRL,3.38
3,EPHKCKECGKRFLRSSDLYRHQRL,3.62
4,EPHKCNECGKRFLRSSDLYRHQRL,4.17
5,EPHKCQECGKRFLRSSDLYRHQRL,3.68
6,EPHKCGECGKRFLRSSDLYRHQRL,3.5
7,EPHKCAECGKRFLRSSDLYRHQRL,3.75
8,EPHKCVECGKRFLRSSDLYRHQRL,3.57
9,EPHKCDECGKRFLRSSDLYRHQRL,4.46
10,EPHKCRECGKRFLRSSDLYRHQRL,3.1
11,EPHKCFECGKRFLRSSDLYRHQRL,3.22
12,EPHKCTECGKRFLRSSDLYRHQRL,3.52
13,EPHKCIECGKRFLRSSDLYRHQRL,3.23
14,EPHKCYECGKRFLRSSDLYRHQRL,3.53
15,EPHKCCECGKRFLRSSDLYRHQRL,3.75
16,EPHKCHECGKRFLRSSDLYRHQRL,3.91
17,EPHKCWECGKRFLRSSDLYRHQRL,3.31
18,EPHKCMECGKRFLRSSDLYRHQRL,3.88
19,EPHKCSECGKRFLRSSDLYRHQRL,3.69
20,EPHKCEECGKRFLRSSDLYRHQRL,4.19
